Data reported in article PMC6013450, “A convenient protocol for generating giant unilamellar vesicles containing SNARE proteins using electroformation” (Scientific Reports, 2018).

Target: T1, syntaxin-1A (183–288) (Rattus norvegicus, UniProt P32851 183-288)
T1 construct: syntaxin-1A, Rattus norvegicus, residues 183-288, contains the transmembrane region; source: E. coli BL21 (DE3), purified (Ni-NTA, ion exchange MonoQ, buffer with 1% CHAPS)
Assay: ion exchange chromatography of the assembled complex; monomers mixed overnight at 4 °C; complex purified on a MonoQ column in a buffer containing CHAPS
Details: both partners purified

T1 sequence (P32851 183-288): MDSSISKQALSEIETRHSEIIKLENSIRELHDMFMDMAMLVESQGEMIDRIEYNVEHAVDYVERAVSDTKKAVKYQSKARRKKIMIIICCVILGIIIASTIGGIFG

B1: synaptobrevin-2 fragment (49–96) (domain or fragment, Rattus norvegicus, UniProt P63045 49-96, looked up)
chain: NVDKVLERDQKLSELDDRADALQAGASQFETSAAKLKRKYWWKNLKMM
notes: synaptobrevin-2, Rattus norvegicus, residues 49-96; also called synaptobrevin fragment 49–96; source: E. coli BL21 (DE3), purified (Ni-NTA, ion exchange MonoS)
  binding result: binds
